The values that follow come from US20120172293A1 (Takeda / Millennium, published 2012).

Starred links: 1 amine or outer side, 2 acyl side, 3 side chain; linkers in the order of their positions; H or OH if unused. Positions of bridges follow the written chain, without caps; N, C: chain ends. Non-standard residues stand in square brackets, D forms with d. No end group written: not given here. Phe(3R-OH) = O=C([C@@H](N[*:1])[C@H](O[*:3])c1ccccc1)[*:2]; tBuAla = CC(C)(C)C[C@H](N)C(=O)O; Cha = N[C@@H](CC1CCCCC1)C(=O)O; hLeu = CC(C)CC[C@H](N)C(=O)O; 4Amb = NCc1ccc(C(=O)O)cc1; Nle = CCCC[C@H](N)C(=O)O; Aib = CC(C)(N)C(=O)O

Test [1] concerns the target T1, human Y2 receptor (human, UniProt P49146 1-381).
T1 sequence (looked up): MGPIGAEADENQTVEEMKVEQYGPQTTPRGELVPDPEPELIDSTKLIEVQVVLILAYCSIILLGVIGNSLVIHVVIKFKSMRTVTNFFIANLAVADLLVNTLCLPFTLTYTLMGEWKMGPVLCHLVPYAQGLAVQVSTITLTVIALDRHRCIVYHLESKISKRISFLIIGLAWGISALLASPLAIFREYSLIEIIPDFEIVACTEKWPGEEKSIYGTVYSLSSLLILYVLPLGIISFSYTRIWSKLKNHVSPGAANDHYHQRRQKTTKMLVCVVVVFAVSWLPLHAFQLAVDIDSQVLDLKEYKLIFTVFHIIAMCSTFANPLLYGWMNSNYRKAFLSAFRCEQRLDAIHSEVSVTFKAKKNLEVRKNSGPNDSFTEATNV
Description: cell-based or functional assay.

Test [2] has as its target T1, human Y2 receptor. Description: RBA: [125I]-PYY displacement, hY2R/CHO membranes. In outline:
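Bound radioligand was collected by filtration on PEI-treated GF/C filters, washed with Tris/MgCl₂/NaCl/CHAPS buffer pH 7.4, and counted by scintillation; IC₅₀ values were calculated.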

B1: Ac-[D-Pro24, Cha27,28, Aib31, homoLeu36]-PYY(23-36) (peptide)
peptide: Ac-S[dP]RH[Cha][Cha]NL[Aib]TRQR[hLeu]-NH2
SMILES: CC(=O)N[C@@H](CO)C(=O)N1CCC[C@@H]1C(=O)N[C@@H](CCCNC(=N)N)C(=O)N[C@@H](Cc1c[nH]cn1)C(=O)N[C@@H](CC1CCCCC1)C(=O)N[C@@H](CC1CCCCC1)C(=O)N[C@@H](CC(N)=O)C(=O)N[C@@H](CC(C)C)C(=O)NC(C)(C)C(=O)N[C@H](C(=O)N[C@@H](CCCNC(=N)N)C(=O)N[C@@H](CCC(N)=O)C(=O)N[C@@H](CCCNC(=N)N)C(=O)N[C@@H](CCC(C)C)C(N)=O)[C@@H](C)O
notes: also called compound No. 199
As to B1, the “GBA EC50 Ratio (vs PYY(3-36)), [35S]GTPγS” value (“GBA EC50 Ratio” for short) with human Y2 receptor [1] amounted to 8.5 ratio. In addition, in the test with human Y2 receptor [2], the “IC50 Ratio (vs PYY(3-36))” value turned out to be 20 ratio.

On to Ac-FRAYINLITRQRY-NH2 (also called compound No. 34) [Ac-[Phe24, Ala26, Ile28,31]-PYY(24-36)], for which the “GBA EC50 Ratio” value with human Y2 receptor [1] stood at 14 ratio. Also, the “IC50 Ratio (vs PYY(3-36))” value with human Y2 receptor [2] was found to be 25 ratio.

B2: [D-Leu24, Ala26, Ile28,31]-PYY(24-36) (peptide)
peptide: [dL]RAYINLITRQRY-NH2
modifications: N-terminus assumed
SMILES: CC[C@H](C)[C@H](NC(=O)[C@H](Cc1ccc(O)cc1)NC(=O)[C@H](C)NC(=O)[C@H](CCCNC(=N)N)NC(=O)[C@H](N)CC(C)C)C(=O)N[C@@H](CC(N)=O)C(=O)N[C@@H](CC(C)C)C(=O)N[C@H](C(=O)N[C@H](C(=O)N[C@@H](CCCNC(=N)N)C(=O)N[C@@H](CCC(N)=O)C(=O)N[C@@H](CCCNC(=N)N)C(=O)N[C@@H](Cc1ccc(O)cc1)C(N)=O)[C@@H](C)O)[C@@H](C)CC
notes: also called compound No. 24
In the case of B2, in the test with human Y2 receptor [1], the “GBA EC50 Ratio” value is 9.4 ratio. Further, the “IC50 Ratio (vs PYY(3-36))” value in the test with human Y2 receptor [2] stood at 14 ratio.

Ac-PRAYINLITRQRY-NH2 (also called compound No. 38) [Ac-[Pro24, Ala26, Ile28,31]-PYY(24-36)]: the “GBA EC50 Ratio” value with human Y2 receptor [1] came to 26 ratio. The “IC50 Ratio (vs PYY(3-36))” value in the test with human Y2 receptor [2] worked out at 52 ratio.

B3: 4-Aminomethylbenzoyl-[Ala26, Nle28, Ile31]-PYY(25-36) (peptide)
peptide: [4Amb]RAY[Nle]NLITRQRY-NH2
modifications: N-terminus assumed
SMILES: CCCC[C@H](NC(=O)[C@H](Cc1ccc(O)cc1)NC(=O)[C@H](C)NC(=O)[C@H](CCCNC(=N)N)NC(=O)c1ccc(CN)cc1)C(=O)N[C@@H](CC(N)=O)C(=O)N[C@@H](CC(C)C)C(=O)N[C@H](C(=O)N[C@H](C(=O)N[C@@H](CCCNC(=N)N)C(=O)N[C@@H](CCC(N)=O)C(=O)N[C@@H](CCCNC(=N)N)C(=O)N[C@@H](Cc1ccc(O)cc1)C(N)=O)[C@@H](C)O)[C@@H](C)CC
notes: also called compound No. 21
Take B3: in the test with human Y2 receptor [1], the “GBA EC50 Ratio” value is 3.6 ratio. Moreover, the “IC50 Ratio (vs PYY(3-36))” value with human Y2 receptor [2] was 4.1 ratio.

B4: Ac-[D-Pro24, Cha27,28, Aib31, threo-PhSer36]-PYY(23-36) (peptide)
peptide: Ac-S[dP]RH[Cha][Cha]NL[Aib]TRQR[Phe(3R-OH)]-NH2
SMILES: CC(=O)N[C@@H](CO)C(=O)N1CCC[C@@H]1C(=O)N[C@@H](CCCNC(=N)N)C(=O)N[C@@H](Cc1c[nH]cn1)C(=O)N[C@@H](CC1CCCCC1)C(=O)N[C@@H](CC1CCCCC1)C(=O)N[C@@H](CC(N)=O)C(=O)N[C@@H](CC(C)C)C(=O)NC(C)(C)C(=O)N[C@H](C(=O)N[C@@H](CCCNC(=N)N)C(=O)N[C@@H](CCC(N)=O)C(=O)N[C@@H](CCCNC(=N)N)C(=O)N[C@H](C(N)=O)[C@H](O)c1ccccc1)[C@@H](C)O
notes: also called compound No. 200
As for B4, the “GBA EC50 Ratio” value with human Y2 receptor [1] was 10 ratio. In addition, in the test with human Y2 receptor [2], the “IC50 Ratio (vs PYY(3-36))” value stood at 16 ratio.

B5: Ac-[D-Pro24, Cha27,28, Aib31, Leu(Me)36]-PYY(23-36) (peptide)
peptide: Ac-S[dP]RH[Cha][Cha]NL[Aib]TRQR[tBuAla]-NH2
SMILES: CC(=O)N[C@@H](CO)C(=O)N1CCC[C@@H]1C(=O)N[C@@H](CCCNC(=N)N)C(=O)N[C@@H](Cc1c[nH]cn1)C(=O)N[C@@H](CC1CCCCC1)C(=O)N[C@@H](CC1CCCCC1)C(=O)N[C@@H](CC(N)=O)C(=O)N[C@@H](CC(C)C)C(=O)NC(C)(C)C(=O)N[C@H](C(=O)N[C@@H](CCCNC(=N)N)C(=O)N[C@@H](CCC(N)=O)C(=O)N[C@@H](CCCNC(=N)N)C(=O)N[C@@H](CC(C)(C)C)C(N)=O)[C@@H](C)O
notes: also called compound No. 198
On to B5, for which, in the test with human Y2 receptor [1], the “GBA EC50 Ratio” value came out at 7.1 ratio. The “IC50 Ratio (vs PYY(3-36))” value with human Y2 receptor [2] was determined as 12 ratio.

B6: cyclo(27-31)-4-Aminomethylbenzoyl-[Glu27, Ile28, Lys31]-PYY(25-36) (peptide)
peptide: [4Amb]RHEINLKTRQRY-NH2
modifications: lactam 4-8; N-terminus assumed
SMILES: CC[C@H](C)[C@@H]1NC(=O)[C@@H](NC(=O)[C@H](Cc2c[nH]cn2)NC(=O)[C@H](CCCNC(=N)N)NC(=O)c2ccc(CN)cc2)CCC(=O)NCCCC[C@@H](C(=O)N[C@H](C(=O)N[C@@H](CCCNC(=N)N)C(=O)N[C@@H](CCC(N)=O)C(=O)N[C@@H](CCCNC(=N)N)C(=O)N[C@@H](Cc2ccc(O)cc2)C(N)=O)[C@@H](C)O)NC(=O)[C@H](CC(C)C)NC(=O)[C@H](CC(N)=O)NC1=O
notes: also called compound No. 25
As to B6, the “GBA EC50 Ratio” value with human Y2 receptor [1] was 16 ratio. In the test with human Y2 receptor [2], the “IC50 Ratio (vs PYY(3-36))” value is 30 ratio.

B7: 4-Aminomethylbenzoyl-[Ala26, Phe28, Ile31]-PYY(25-36) (peptide)
peptide: [4Amb]RAYFNLITRQRY-NH2
modifications: N-terminus assumed
SMILES: CC[C@H](C)[C@H](NC(=O)[C@H](CC(C)C)NC(=O)[C@H](CC(N)=O)NC(=O)[C@H](Cc1ccccc1)NC(=O)[C@H](Cc1ccc(O)cc1)NC(=O)[C@H](C)NC(=O)[C@H](CCCNC(=N)N)NC(=O)c1ccc(CN)cc1)C(=O)N[C@H](C(=O)N[C@@H](CCCNC(=N)N)C(=O)N[C@@H](CCC(N)=O)C(=O)N[C@@H](CCCNC(=N)N)C(=O)N[C@@H](Cc1ccc(O)cc1)C(N)=O)[C@@H](C)O
notes: also called compound No. 22
Turning to B7, in the test with human Y2 receptor [1], the “GBA EC50 Ratio” value is 3.5 ratio. Moreover, the “IC50 Ratio (vs PYY(3-36))” value with human Y2 receptor [2] amounted to 4.1 ratio.

B8: 4-Aminomethylbenzoyl-[Ala26, Trp28, Ile31]-PYY(25-36) (peptide)
peptide: [4Amb]RAYWNLITRQRY-NH2
modifications: N-terminus assumed
SMILES: CC[C@H](C)[C@H](NC(=O)[C@H](CC(C)C)NC(=O)[C@H](CC(N)=O)NC(=O)[C@H](Cc1c[nH]c2ccccc12)NC(=O)[C@H](Cc1ccc(O)cc1)NC(=O)[C@H](C)NC(=O)[C@H](CCCNC(=N)N)NC(=O)c1ccc(CN)cc1)C(=O)N[C@H](C(=O)N[C@@H](CCCNC(=N)N)C(=O)N[C@@H](CCC(N)=O)C(=O)N[C@@H](CCCNC(=N)N)C(=O)N[C@@H](Cc1ccc(O)cc1)C(N)=O)[C@@H](C)O
notes: also called compound No. 23
With B8, the “GBA EC50 Ratio” value in the test with human Y2 receptor [1] worked out at 5 ratio. Besides, the “IC50 Ratio (vs PYY(3-36))” value with human Y2 receptor [2] was determined as 3.4 ratio.

B9: 4-Aminomethylbenzoyl-[Arg26, Ile28,31]-PYY(25-36) (peptide)
peptide: [4Amb]RRYINLITRQRY-NH2
modifications: N-terminus assumed
SMILES: CC[C@H](C)[C@H](NC(=O)[C@H](Cc1ccc(O)cc1)NC(=O)[C@H](CCCNC(=N)N)NC(=O)[C@H](CCCNC(=N)N)NC(=O)c1ccc(CN)cc1)C(=O)N[C@@H](CC(N)=O)C(=O)N[C@@H](CC(C)C)C(=O)N[C@H](C(=O)N[C@H](C(=O)N[C@@H](CCCNC(=N)N)C(=O)N[C@@H](CCC(N)=O)C(=O)N[C@@H](CCCNC(=N)N)C(=O)N[C@@H](Cc1ccc(O)cc1)C(N)=O)[C@@H](C)O)[C@@H](C)CC
notes: also called compound No. 18
For B9, the “GBA EC50 Ratio” value with human Y2 receptor [1] came out at 3 ratio. Also, the “IC50 Ratio (vs PYY(3-36))” value with human Y2 receptor [2] was determined as 4 ratio.

B10: 4-Aminomethylbenzoyl-[Ala26, Trp27, Ile28,31]-PYY(25-36) (peptide)
peptide: [4Amb]RAWINLITRQRY-NH2
modifications: N-terminus assumed
SMILES: CC[C@H](C)[C@H](NC(=O)[C@H](Cc1c[nH]c2ccccc12)NC(=O)[C@H](C)NC(=O)[C@H](CCCNC(=N)N)NC(=O)c1ccc(CN)cc1)C(=O)N[C@@H](CC(N)=O)C(=O)N[C@@H](CC(C)C)C(=O)N[C@H](C(=O)N[C@H](C(=O)N[C@@H](CCCNC(=N)N)C(=O)N[C@@H](CCC(N)=O)C(=O)N[C@@H](CCCNC(=N)N)C(=O)N[C@@H](Cc1ccc(O)cc1)C(N)=O)[C@@H](C)O)[C@@H](C)CC
notes: also called compound No. 51
As to B10, the “GBA EC50 Ratio” value in the test with human Y2 receptor [1] stood at 5.3 ratio. The “IC50 Ratio (vs PYY(3-36))” value with human Y2 receptor [2] was found to be 9.5 ratio.

B11: 4-Aminomethylbenzoyl-[Pro26, Ile28,31]-PYY(25-36) (peptide)
peptide: [4Amb]RPYINLITRQRY-NH2
modifications: N-terminus assumed
SMILES: CC[C@H](C)[C@H](NC(=O)[C@H](Cc1ccc(O)cc1)NC(=O)[C@@H]1CCCN1C(=O)[C@H](CCCNC(=N)N)NC(=O)c1ccc(CN)cc1)C(=O)N[C@@H](CC(N)=O)C(=O)N[C@@H](CC(C)C)C(=O)N[C@H](C(=O)N[C@H](C(=O)N[C@@H](CCCNC(=N)N)C(=O)N[C@@H](CCC(N)=O)C(=O)N[C@@H](CCCNC(=N)N)C(=O)N[C@@H](Cc1ccc(O)cc1)C(N)=O)[C@@H](C)O)[C@@H](C)CC
notes: also called compound No. 19
In the case of B11, the “GBA EC50 Ratio” value with human Y2 receptor [1] came out at 25 ratio. In the test with human Y2 receptor [2], the “IC50 Ratio (vs PYY(3-36))” value was found to be 45 ratio.

B12: 4-Aminomethylbenzoyl-[Gly26, Ile28,31]-PYY(25-36) (peptide)
peptide: [4Amb]RGYINLITRQRY-NH2
modifications: N-terminus assumed
SMILES: CC[C@H](C)[C@H](NC(=O)[C@H](Cc1ccc(O)cc1)NC(=O)CNC(=O)[C@H](CCCNC(=N)N)NC(=O)c1ccc(CN)cc1)C(=O)N[C@@H](CC(N)=O)C(=O)N[C@@H](CC(C)C)C(=O)N[C@H](C(=O)N[C@H](C(=O)N[C@@H](CCCNC(=N)N)C(=O)N[C@@H](CCC(N)=O)C(=O)N[C@@H](CCCNC(=N)N)C(=O)N[C@@H](Cc1ccc(O)cc1)C(N)=O)[C@@H](C)O)[C@@H](C)CC
notes: also called compound No. 50
As to B12, the “GBA EC50 Ratio” value with human Y2 receptor [1] was determined as 4.6 ratio. The “IC50 Ratio (vs PYY(3-36))” value with human Y2 receptor [2] worked out at 7.1 ratio.
